Measured values taken from patent publication US6436691B1, “Chemical compounds” (Zeneca Limited, priority 1995, dated 2002).

Experiments:
Type in all cases: biochemical
[1] = Conversion of Hipp-Glu by periplasmic shockate of HCPB mutants, 24 h (Example 18); conditions: 24 h at 37° C.
Experimental: (§1) The activity of [G251T,D253K]HCPB was measured using the assay conditions described in Example 17 but using either 50 μl of a neat or 1 in 10 or 1 in 100 dilution of [G251T,D253K]HCPB crude E.coli periplasmic shockate (shockate) sample in place of purified enzyme. Samples were incubated for 24 h at 37° C. […] For other HCPB mutants, the reaction volume was 250 μl and contained 125 μl of neat shockate or 1 in 50 dilution of shockate. The shockate samples were prepared as described in Example 16. The amount of Hippuric acid produced in 24 h was quantified by HPLC as described in Example 17 and the results are shown in Table 6 and are expressed as the percentage conversion of substrate into product in 24 h at 37° C.

[2] = Km and kcat of HCPB mutants with Hipp-Glu (Example 7); conditions: Hipp-Glu 0.25-8.0 mM; pH 7.5; 5 h at 37° C.
Experimental: Hipp-Glu and Hipp-Asp were diluted in range 0.25-8.0 mM and 0.25-5.0 mM respectively in 0.025 M Tris-HCL buffer, pH 7.5. Where necessary substrate samples were adjusted to pH 7.5 with 1M NaOH.
Samples were incubated for 5 h at 37° C. Reactions were terminated by the addition of 500 μl methanol/distilled water (80/20) containing 0.2% TFA. The amount of hippuric acid produced was quantified by HPLC as described in Example 6.
Km and Vmax values were calculated using the ENZFITTER software programme (Biosoft, Perkin Elmer).

[3] = Conversion of Hipp-Arg by purified HCPB mutants, 30 minutes, HPLC (Example 17); conditions: 0.5 mM substrate, 30 minutes at 37° C.
Experimental: (§2) Purified mutants of human CPB (D253K; [G251K,D253R]; [G251N,D253R]; [I201S,D253K]; [G251N,D253K]; [Q54R,D145A,D253K]; [G251T,D253K]; [G251S,D253K]; [A248N,G251N,D253K]; [A248S,G251N,D253K] and [S205N,G251N,D253K]—described in Examples 3, 12, 13, 16, 28, 30, 31, 32 and 33) were assayed for their ability to convert hippuryl-L-glutamic acid (Hipp-Glu—Reference Example 1), hippuryl-L-aspartic acid (Hipp-Asp—Reference Example 2) and hippuryl-L-arginine (Sigma Chemical Company—cat no. H6625) to hippuric acid using a HPLC based assay similar to that described in Example 6.
(§3) Samples were incubated for 30 minutes at 37° C. The reactions were terminated by the addition of 500 μl of 40% methanol, 60% distilled water, 0.2% trifluoro acetic acid and the amount of hippuric acid generated was quantitated by HPLC as described in Example 6 but using a mobile phase of 20% methanol, 80% 50 mM phosphate buffer, pH 6.5. Hippuric acid was detected at 230 nm. The results are shown in Table 5 and are expressed as the percentage conversion of substrate into product in 30 minutes at 37° C.

[4] = Conversion of Hipp-Asp by periplasmic shockate of HCPB mutants, 24 h (Example 18); conditions: shockate concentration in reaction mixture 50 %; 24 h at 37° C.
Experimental: as §1

[5] = Conversion of Hipp-Glu by purified HCPB mutants, 30 minutes, HPLC (Example 17); conditions: 0.5 mM substrate, 30 minutes at 37° C.
Experimental: as §2, §3

[6] = Conversion of Hipp-Asp by purified HCPB mutants, 30 minutes, HPLC (Example 17); conditions: 0.5 mM substrate, 30 minutes at 37° C.
Experimental: as §2, §3

[7] = Conversion of prodrug of Example 24 to drug of Example 25 by HCPB mutants, HPLC (Example 20); conditions: enzyme 15 μg/ml; 0.5 mM prodrug of Example 24; 5 minutes at 37° C.
Experimental: The reaction was stopped by adding MeCN (500 μl) plus 0.2% Trifluoroacetic acid. The amount of drug produced was then quantified by HPLC.
HPLC separation was carried out as described in Example 6 except that a mobile phase of 70% MeCN, 30% distilled water and 0.1% trifluoroacetic acid was used to achieve separation of prodrug (retention time 3.8 minutes) and drug (retention time 4.9 minutes) and the compounds were detected at 260 nm. The amount of drug produced was quantified from calibration curves generated with known amounts of drug.
The amount of [Q54R,D145A,D253K]HCPB and [G251T,D253K]HCPB mutants was reduced to 0.75 μg in the reaction mixture.

[8] = shockate concentration in reaction mixture 1 %
[9] = shockate concentration in reaction mixture 50 %

Row | Molecule | Hipp-Glu (% conversion) [1, 8] [%] | Hipp-Glu (% conversion) [1, 9] [%] | Km [2] [µM] | kcat, Hipp-Glu [2] [s⁻¹] | Hipp-Arg (% conversion) ([3]; enzyme 0.25 μg/ml) [%] | Hipp-Arg (% conversion) ([3]; enzyme 25 μg/ml) [%] | Hipp-Asp (% conversion) [4] [%] | Hipp-Glu (% conversion) ([5]; enzyme 0.25 μg/ml) [%] | Hipp-Glu (% conversion) ([5]; enzyme 25 μg/ml) [%] | Hipp-Asp (% conversion) ([6]; enzyme 0.25 μg/ml) [%] | Hipp-Asp (% conversion) ([6]; enzyme 25 μg/ml) [%] | Hipp-Arg (% conversion) ([3]; enzyme 0.5 μg/ml) [%] | Hipp-Glu (% conversion) ([5]; enzyme 0.5 μg/ml) [%] | Hipp-Asp (% conversion) ([6]; enzyme 0.5 μg/ml) [%] | Hipp-Arg (% conversion) ([3]; enzyme 2.5 μg/ml) [%] | Hipp-Glu (% conversion) ([5]; enzyme 2.5 μg/ml) [%] | Prodrug Hydrolysis (%) [7] [%] | Hipp-Asp (% conversion) ([6]; enzyme 2.5 μg/ml) [%]
1 | [A248S,G251T,D253K]HCPB: HCPB mutant with A248S, G251T and D253K, (His)6-c-myc tag (protein, UniProt P15086 111-417, looked up, variant A248S G251T D253K, (His)6-c-myc tag) Carboxypeptidase B: ATGHSYEKYNKWETIEAWTQQVATENPALISRSVIGTTFEGRAIYLLKVGKAGQNKPAIFMDCGFHAREWISPAFCQWFVREAVRTYGREIQVTELLDKLDFYVLPVLNIDGYIYTWTKSRFWRKTRSTHTGSSCIGTDPNRNFDAGWCEIGASRNPCDETYCGPAAESEKETKALADFIRNKLSSIKAYLTIHSYSQMMIYPYSYAYKLGENNAELNALAKATVKELASLHGTKYTYGPGATTIYPSAGTSKDWAYDQGIRYSFTFELRDTGRYGFLLPESQIRATCEETFLAIKYVASYVLEHLY | 20 | 91.3 | 1100 | 19 | 0 | 0 | 0.5 | 14.5 | 93 | 0 | 5.5 | – | – | – | – | – | – | –
2 | [A248N, G251N, D253K]: HCPB mutant with A248N, G251N and D253K, (His)6-c-myc tag (protein, UniProt P15086 111-417, looked up, variant A248N G251N D253K, (His)6-c-myc tag) Carboxypeptidase B: ATGHSYEKYNKWETIEAWTQQVATENPALISRSVIGTTFEGRAIYLLKVGKAGQNKPAIFMDCGFHAREWISPAFCQWFVREAVRTYGREIQVTELLDKLDFYVLPVLNIDGYIYTWTKSRFWRKTRSTHTGSSCIGTDPNRNFDAGWCEIGASRNPCDETYCGPAAESEKETKALADFIRNKLSSIKAYLTIHSYSQMMIYPYSYAYKLGENNAELNALAKATVKELASLHGTKYTYGPGATTIYPNAGNSKDWAYDQGIRYSFTFELRDTGRYGFLLPESQIRATCEETFLAIKYVASYVLEHLY | – | 63.9 | – | – | 0 | 1.4 | 0 | 25.3 | 100 | 0.6 | 2.5 | – | – | – | – | – | – | –
3 | [S205N, G251N, D253K]: HCPB mutant with S205N, G251N and D253K, (His)6-c-myc tag (protein, UniProt P15086 111-417, looked up, variant S205N G251N D253K, (His)6-c-myc tag) Carboxypeptidase B: ATGHSYEKYNKWETIEAWTQQVATENPALISRSVIGTTFEGRAIYLLKVGKAGQNKPAIFMDCGFHAREWISPAFCQWFVREAVRTYGREIQVTELLDKLDFYVLPVLNIDGYIYTWTKSRFWRKTRSTHTGSSCIGTDPNRNFDAGWCEIGASRNPCDETYCGPAAESEKETKALADFIRNKLSSIKAYLTIHSYSQMMIYPYNYAYKLGENNAELNALAKATVKELASLHGTKYTYGPGATTIYPAAGNSKDWAYDQGIRYSFTFELRDTGRYGFLLPESQIRATCEETFLAIKYVASYVLEHLY | – | 14.1 | – | – | – | 0.2 | 0 | – | 85 | – | 0.48 | 0 | 7.9 | 0 | – | – | – | –
4 | [A248N, G251T, D253K]: HCPB mutant with A248N, G251T and D253K, (His)6-c-myc tag (protein, UniProt P15086 111-417, looked up, variant A248N G251T D253K, (His)6-c-myc tag) Carboxypeptidase B: ATGHSYEKYNKWETIEAWTQQVATENPALISRSVIGTTFEGRAIYLLKVGKAGQNKPAIFMDCGFHAREWISPAFCQWFVREAVRTYGREIQVTELLDKLDFYVLPVLNIDGYIYTWTKSRFWRKTRSTHTGSSCIGTDPNRNFDAGWCEIGASRNPCDETYCGPAAESEKETKALADFIRNKLSSIKAYLTIHSYSQMMIYPYSYAYKLGENNAELNALAKATVKELASLHGTKYTYGPGATTIYPNAGTSKDWAYDQGIRYSFTFELRDTGRYGFLLPESQIRATCEETFLAIKYVASYVLEHLY | 53.5 | 95 | – | – | – | – | 1 | – | – | – | – | – | – | – | – | – | – | –
5 | [A248S, G251N, D253K]: HCPB mutant with A248S, G251N and D253K, (His)6-c-myc tag (protein, UniProt P15086 111-417, looked up, variant A248S G251N D253K, (His)6-c-myc tag) Carboxypeptidase B: ATGHSYEKYNKWETIEAWTQQVATENPALISRSVIGTTFEGRAIYLLKVGKAGQNKPAIFMDCGFHAREWISPAFCQWFVREAVRTYGREIQVTELLDKLDFYVLPVLNIDGYIYTWTKSRFWRKTRSTHTGSSCIGTDPNRNFDAGWCEIGASRNPCDETYCGPAAESEKETKALADFIRNKLSSIKAYLTIHSYSQMMIYPYSYAYKLGENNAELNALAKATVKELASLHGTKYTYGPGATTIYPSAGNSKDWAYDQGIRYSFTFELRDTGRYGFLLPESQIRATCEETFLAIKYVASYVLEHLY | – | 46.1 | – | – | – | 0 | 1 | – | 86 | – | 1.3 | 0 | 10.7 | 0 | – | – | – | –
6 | [G251N,D253R]: HCPB mutant with G251N and D253R, (His)6-c-myc tag (protein, UniProt P15086 111-417, looked up, variant G251N D253R, (His)6-c-myc tag) Carboxypeptidase B: ATGHSYEKYNKWETIEAWTQQVATENPALISRSVIGTTFEGRAIYLLKVGKAGQNKPAIFMDCGFHAREWISPAFCQWFVREAVRTYGREIQVTELLDKLDFYVLPVLNIDGYIYTWTKSRFWRKTRSTHTGSSCIGTDPNRNFDAGWCEIGASRNPCDETYCGPAAESEKETKALADFIRNKLSSIKAYLTIHSYSQMMIYPYSYAYKLGENNAELNALAKATVKELASLHGTKYTYGPGATTIYPAAGNSRDWAYDQGIRYSFTFELRDTGRYGFLLPESQIRATCEETFLAIKYVASYVLEHLY | – | – | – | – | – | 0 | – | – | 57 | – | 9.4 | – | – | – | 0 | 8.8 | 66.7 | 1.4
7 | [G251N, D253K, T266G]: HCPB mutant with G251N, D253K and T266G, (His)6-c-myc tag (protein, UniProt P15086 111-417, looked up, variant G251N D253K T266G, (His)6-c-myc tag) Carboxypeptidase B: ATGHSYEKYNKWETIEAWTQQVATENPALISRSVIGTTFEGRAIYLLKVGKAGQNKPAIFMDCGFHAREWISPAFCQWFVREAVRTYGREIQVTELLDKLDFYVLPVLNIDGYIYTWTKSRFWRKTRSTHTGSSCIGTDPNRNFDAGWCEIGASRNPCDETYCGPAAESEKETKALADFIRNKLSSIKAYLTIHSYSQMMIYPYSYAYKLGENNAELNALAKATVKELASLHGTKYTYGPGATTIYPAAGNSKDWAYDQGIRYSFGFELRDTGRYGFLLPESQIRATCEETFLAIKYVASYVLEHLY | – | 0.95 | – | – | – | – | 3.4 | – | – | – | – | – | – | – | – | – | – | –
